In paper PMC7614720:

Tested on: C[C@@H](O)[C@H]1C(=O)N2C(C(=O)O)=C([C@H]3CCCO3)S[C@H]12
Assay: purified protein
Conditions: two Zn2+ ions active site

VIM-2 (Pseudomonas aeruginosa)
Km: 5.11 µM | kcat: 36.7 s⁻¹ | kcat/Km: 7.17e+06 M⁻¹ s⁻¹
